Measurements taken from paper doi:10.1101/2024.04.26.591398.
pIC50, pKd: −log10 of the molar value.

Biological target: T1, FITC-casein
T1 sequence (P02666 16-224, species assumed, looked up): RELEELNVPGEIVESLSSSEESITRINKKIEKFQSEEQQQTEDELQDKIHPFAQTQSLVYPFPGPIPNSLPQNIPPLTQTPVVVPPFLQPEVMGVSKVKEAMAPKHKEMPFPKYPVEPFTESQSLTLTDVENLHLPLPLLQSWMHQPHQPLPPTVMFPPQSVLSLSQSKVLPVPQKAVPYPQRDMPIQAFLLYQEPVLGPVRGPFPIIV
Experiment: fluorescence polarisation

Ydj1, sequence (P25491 whole entry): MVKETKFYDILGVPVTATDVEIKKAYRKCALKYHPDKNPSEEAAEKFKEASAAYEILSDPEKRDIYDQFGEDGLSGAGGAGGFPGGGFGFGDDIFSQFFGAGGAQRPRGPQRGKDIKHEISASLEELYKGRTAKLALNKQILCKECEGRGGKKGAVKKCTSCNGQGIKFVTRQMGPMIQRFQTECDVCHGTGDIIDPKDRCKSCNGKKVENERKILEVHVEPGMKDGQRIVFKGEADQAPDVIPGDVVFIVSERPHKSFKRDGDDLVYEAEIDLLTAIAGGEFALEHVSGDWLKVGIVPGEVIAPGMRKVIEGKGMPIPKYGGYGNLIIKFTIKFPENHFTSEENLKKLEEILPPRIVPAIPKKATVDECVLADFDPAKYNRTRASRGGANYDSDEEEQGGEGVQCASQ
Hsp104, sequence (P31539 whole entry): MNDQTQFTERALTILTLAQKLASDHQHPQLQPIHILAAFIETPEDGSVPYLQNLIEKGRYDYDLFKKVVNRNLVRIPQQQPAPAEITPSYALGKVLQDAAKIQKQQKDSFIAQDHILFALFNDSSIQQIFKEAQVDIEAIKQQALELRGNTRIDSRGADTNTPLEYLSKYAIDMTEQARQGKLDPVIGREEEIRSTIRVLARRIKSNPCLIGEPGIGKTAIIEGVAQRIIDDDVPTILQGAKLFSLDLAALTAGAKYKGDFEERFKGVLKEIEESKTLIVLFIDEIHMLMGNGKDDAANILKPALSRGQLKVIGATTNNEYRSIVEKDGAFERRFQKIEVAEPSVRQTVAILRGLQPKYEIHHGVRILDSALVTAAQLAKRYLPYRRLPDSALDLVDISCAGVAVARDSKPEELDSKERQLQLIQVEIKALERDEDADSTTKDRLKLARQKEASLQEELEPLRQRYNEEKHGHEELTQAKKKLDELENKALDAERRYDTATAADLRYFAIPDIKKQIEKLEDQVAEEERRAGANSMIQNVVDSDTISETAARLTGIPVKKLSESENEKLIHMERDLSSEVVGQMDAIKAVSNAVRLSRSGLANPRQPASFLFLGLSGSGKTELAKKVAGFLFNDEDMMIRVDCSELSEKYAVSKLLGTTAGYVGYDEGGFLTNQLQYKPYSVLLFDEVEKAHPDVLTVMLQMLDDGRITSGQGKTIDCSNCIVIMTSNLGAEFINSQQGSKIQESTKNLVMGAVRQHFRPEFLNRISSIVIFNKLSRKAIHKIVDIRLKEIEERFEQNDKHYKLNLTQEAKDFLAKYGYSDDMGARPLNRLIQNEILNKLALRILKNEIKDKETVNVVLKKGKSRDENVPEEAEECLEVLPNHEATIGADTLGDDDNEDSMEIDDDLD

pKd	pIC50	Substance
6.70	–	Hsp104 (from UniProt P31539 1-908) (natural protein)
–	4.40 to 4.70	Ydj1 (from UniProt P25491 1-409) (natural protein)
